Measured values as given in publication PMC12556795, “Intrinsically disordered cytoplasmic tail in netrin receptor DCC binds the large ribosomal subunit to inhibit translation” (The Journal of Biological Chemistry, 2025).
Where no end group is shown, it is not given here.

Target: Ribosomal protein eL5/uL18 (H. sapiens rpL5) (H. sapiens, UniProt P46777 1-297)
Assay: NMR titration; 15N-1H HSQC at 25 °C, 35 uM 15N WT N29+P1 or 80 uM KRK→AAA N29+P1 with unlabelled rpL5 at a 1:1 ratio, phosphate buffer pH 6.4 with 5% v/v glycerol; chemical shift perturbations and peak disappearance
Details: both partners purified

B1: DCC C-tail N29+P1 protein (residues 1121-1167) (domain or fragment)
chain: CTRRSSAQQRKKRATHSAGKRKGSQKDLRPPDLWIHHEEMEMKNIEK
modifications: also: Cy5 label via maleimide (MST only), 15N-labelled (NMR only)
notes: Residues 1121-1122 were included to give a terminal cysteine for labelling; also called WT N29+P1; DCC N29-P1; source: E. coli LOBSTR-BL21(DE3), purified (Ni-NTA, Superdex 75)
binding result: binds
